The values that follow come from article PMC4486934.

This data set concerns var2CSA (PfEMP1) (Plasmodium falciparum CS2). Put plainly: cell binding, microfluidic partitioning and qPCR. To be noted: 2'-fluoro pyrimidines, TBB: 20 mM HEPES pH 7.4, 150 mM NaCl, 2 mM CaCl2, room temperature (cell binding); for binding signal: CS2 vs uninfected RBCs. A general note: Real-time PCR tracks product formation cycle by cycle.

The sequence “GGGAGCUCAGAAUAAACGCUCAAAUGUCUCCAGCUCUUGUGGCGAACCCAAGCGGGUUGACCAGAAUGCAUCAUUCGACAUGAGGCCCGGAUCCGGC [scr8.1-1]” showed a binding signal (defines non-specific threshold, BLI in TBB) of 1.24 ddCp. In the case of “GGGAGCUCAGAAUAAACGCUCAACAACGGAUCACACGCAAGCGAAUCUAUGUCCUUCGGGUCUAAGGGUCGCUUUCGACAUGAGGCCCGGAUCCGGC [8.1-1]”, the binding signal (100 nM, P = 0.0002, BLI in …) amounted to 3.12 ddCp. Besides, the Kd (apparent Kd on CS2 infected RBCs, no enrichment on DC-J, BLI in TBB) came out at 14 nM.
